# Data: patent publication US20060234282A1 (NATIONAL RESEARCH COUNCIL OF CANADA, published 2006)
# T1: rat galanin receptor-2 (GAL-R2) (rat, UniProt O08726 1-372)
# T1 construct: Full 372 amino acid open reading frame expressed from pCDNA3/GALR-2 in HEK293 cells; cAMP assays used whole cells; also called rat GAL-R2; RGALR2.PRO
# T1 sequence: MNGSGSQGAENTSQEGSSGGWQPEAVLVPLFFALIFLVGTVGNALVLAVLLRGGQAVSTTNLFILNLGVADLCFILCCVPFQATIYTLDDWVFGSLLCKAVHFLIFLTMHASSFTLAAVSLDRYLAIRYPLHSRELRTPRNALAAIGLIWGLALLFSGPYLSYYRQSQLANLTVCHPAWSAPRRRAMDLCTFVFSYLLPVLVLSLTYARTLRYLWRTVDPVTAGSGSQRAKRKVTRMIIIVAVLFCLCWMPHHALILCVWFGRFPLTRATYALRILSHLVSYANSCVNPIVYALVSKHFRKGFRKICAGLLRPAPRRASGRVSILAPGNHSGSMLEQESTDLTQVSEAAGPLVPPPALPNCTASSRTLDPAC
# Target: T1, rat galanin receptor-2 (GAL-R2)
# Test: displacement of ^125I-galanin, membranes of HEK293 cells expressing rat GAL-R2
# Experimental: Binding reactions proceeded for 20 min at room temperature and were stopped by filtration through Unifilters-96, GF/B filters (Canberra Packard), using the 96-well Filtermate 196 filtration system from Canberra Packard. Filters were washed 5 times with 0.5 ml of ice cold 20 mM HEPES pH 7.5. The filters were dried at 55° C. for one hour and then 100 μl of μScint-20 (Canberra Packard) was added per well. Filters were counted with the Topcount microplate counter from Canberra Packard.
Molecule,Ki,binding result
M40 (peptide),8.3 nM,
"HSDAVFTDNYTRLRKQMAVKKYLNSILN (peptide, UniProt P01282 125-152, looked up, Galanin-unrelated control ligand) [vasoactive intestinal polypeptide]",,no binding
"RPKPQQFFGLM (peptide, UniProt P20366 58-68, looked up, Galanin-unrelated control ligand) [substance P]",,no binding
